Results: the DeepSol protein solubility set

Assay: soluble on expression in E. coli; label from the status in PepcDB or PDB records

Sequence	soluble on expression in E. coli
MSLSSTFSARGPLLTAAVLLVGLLAGCASSQSATAPSPDDSGQAQSPAQNETGENGLKPFGDVVPDTARTDPGLLTTHRFDGKLYVEIPDSLIGRELLMVSRAAQTPDGFGYGGEKTATQVLRWQRRGDQLYLRVVSHEDMAQEDDPVYQAVQNSNLEPIIQSFSIEALNEDSTGVVAEVTDLFTSDVPSLGIPSAAREEYRVRRLDGDRTYIKGVESFPENTDIEAVLTYQAENPPSNASTKTLTVSMNHSMVLLPKEPMQPRLCDDRVGYFSVERVNYSSDEQRATEACFITRWKLEPKDPEAYARGELVEPKEPIVYYIDPATPKKWRPYLKQGVEAWQSTFREAGFKNAIIAKDPPSAEEDSTFDPDDIRYSTIRYFASEVQNAYGPHVHDPRSGEILESDIGWYHNVMNLLRNWYFVQTAAVNPEARKPVFSTEVMGKLVRFVAAHEVGHTLGLPHNMGSSNAVPVDSLRSPSYTADHGTAPSIMDYARFNYVAQPGDGVENFLPRIGTYDEWAVRWGYTKRPTGSPEEQAQTLDEMILEHTDDPRYFFGASGSIDPRSQSEDLGRDAMEASRLGIANLKRILPNLIQWTSRDGEGYATLEELYGAVVNQWRRYMGHVSQHLGGVHETPKTYGQEGPVYEPVSATDQERAVDFLLTHAFETPTWMVEADVLRRIEHAGALERVREAQVGVLDGVLDPERMARMLEAEAMSEDDVYGVGDLFGDLRGGVWAELESGSVIDPYRRNLQRGYLERLDYLMTAEVEAPPPEYQQYIDYTPVDVSQSDIRPYVRAELKTLRDDVQQGLRRTTDETTEMHLQDVLARIDQTLNGTEGHHHHHH	not soluble
MSLSTGDASGAPAVWSHGYTEASGVKNKLCVAALSVNNFCDNREALYGVFDGDRNVEVPYLLQCTMSDILAEELQKTKNEEEYMVNTFIVMQRKLGTAGQKLGGAAVLCHIKHDPVDPGGSFTLTSANVGKCQTVLCRNGKPLPLSRSYIMSCEEELKRIKQHKAIITEDGKVNGVTESTRILGYTFLHPSVVPRPHVQSVLLTPQDEFFILGSKGLWDSLSVEEAVEAVRNVPDALAAAKKLCTLAQSYGCHDSISAVVVQLSVTEDEGHHHHHH	soluble
MSLSTMGPLGGISVIFDLDGTLVDSEPHYYEAGRRTLAEYGVPDFSWADHEAYVGISTQETVADWKRRYGLRATVEELLAVKNRHYLGLARTSARAYPEMRKFVELLAGEGVPMAVASGSSPEAIAAILARTGLDAHLRTVVSADEVARGKPAPDVFLEAARRLGTEPARCVVLEDAAPGAAAAHAAGMRCIAIPYVSGQADAPEFATAELLVRGGQEEFTARAAHDWLRTDGNATRETEGHHHHHH	soluble
MSLSTYILNTNDKARERLSLQHQLYAKSSLDLLSEVGPSAAMTALEIGCGSGDMTLELAKLIGREGSLLTIDLSQDQLDHTQQRTRTYSNIRFKVWDVNHLSDLGEKFDLIYCRMVLHHVADARSVILQMKNCLNSGGFVVCEEPSLFDSTFCSPPSPSYDQFTQWARSCFSKSNRDFQIAHRLEQEFSSCGFEIEHCSLFQPLLRTNKEKLIYSMALDDLTPQLLELGIAKREEIKQLHNELEDLAKTNSTMCWIRMHKIIAKLNEGHHHHHH	soluble
MSLSVFDLFKIGIGPSSSHTVGPMRAAARFAEGLRREGLLEATASIKVELYGSLGATGKGHGSDKAVLLGLEGEQPDTVDTAAIPARLDAIRSSGELRLLGERPIRFVEKEHLALIRKPLAYHPNGMIFRAFDAAGLQVRSREYYSVGGGFVVDDEAAGLDRIVEDRTPLAFPFKTARQLLDHCAREGLSISQLMAENEKAWRPAEETRTGLLRIWQVMQDCVEAGCRNEGIMPGGLKVRRRAAALHRQLCQRPEAGLRDALSVLDWVNLYALAVNEENASGGRVVTAPTNGAAGIIPAVLHYYARFIPGADDDGVVRFLLTAAAIGILYKENASISGAEVGCQGEVGVACSMAAGALCEVLGGSVQQVENAAEIGMEHNLGLTCDPVGGLVQVPCIERNAMASVKAINAARMALRGDGQHFISLDKVIRTMRQTGADMKSKYKETARGGLAVNIIEC	not soluble
MSLSVNSRILWVDLENSPHVPFFKPIIEELEKHGYRVVITARDCFQVCGLADLYGLPYTRIGRHYGKHKALKVVGAVIRALQMRNTLARPLPSLAIAHGSRSQLLAAKILHIPALQLADYEFSNKMPSFLSSDWIMVPETIPAGLHWRNTSRISTYPGIKEDVYVPTFKPQTGILSELGILEKEIVVTIRPPASEAHYHNPKSDDLFYATVNWLSGIDNLRMVVLPRNSSQAAHIGKTWPALIGEAKMVIPDRVLDGLNLIWHSDLVISGGGTMNREAAALGVPVYSIFKGEIGAVDKYLASTGRLTLLETADDITNKVLIQKWERPSSPDHNPRPALKVIVDKILELVEGHHHHHH	not soluble
MSLSVTIFSEFESEVRSYCRAFPAVFSRAKGEYLLAEDGRKFLDFFAGAGSLNYGHNDDDMIEAAISYMRQDGVLNGLDLNTSAKAEFIETFRTLVLQPRDLNYKLQFTGPTGANAVEAAMKLARKVTQRPDIACFSGGYHGMSLGALSVTANAVKRASLVVQVPGVVRLPYEGAIEGSVASQLRVLQDMLCRPGFGIDPPAAFLLECVQGEGGVNCASAEWLQGVAALARKLGALLIVDEIQTGCGRTGRFFSFEHACIEPDIICLSKSLGGGGLPFSLNLIKPEIDIWNPGEHNGTFRGNNLAMVMATAALRKYWATPHFAHEVEEKGLAVAACLKNALQAFDGQVRVVGKGLMIGLRFQHAEHAREASRRLFESGLLIEVCGPRNEVLKLMPVLTMDRQAMLAAASRIAACAQALLSRSLESETEGHHHHHH	soluble
MSLSYLLALDAGTGSIRAVIFDLNGRQLAVGQAEWKHLSVDNVPGSMEFDLTTNWQLACQCIRQALDAARLSAADIQSVACCSMREGIVLYDRNGEAIWACANVDARASREVAELKEIHDFRFESEVYEVSGQTLALSAMPRLLWLAHHRPDIYRKAATITMISDWLAAKLSGELAVDPSNAGTTGMLDLFSRDWRPALLDMAGLRADMLSPVKETGTLLGAVTEAAAQQSGLRAGTPVVMGGGDVQLGCLGLGVVRAGQTAVLGGTFWQQVVNLPQVRTDPQMNIRVNPHVIPGMAQAESISFFTGLTMRWFRDAFCAEEKLIAERLGVDAYSLLEEMASRVPAGSHGVMPIFSDAMHFKQWYHAAPSFINLSIDPEKCNKATLFRALEENAAIVSACNLAQISQFSGVTFESLVFAGGGSKGALWSQILSDVTGLPVRVPVVREATALGCAIAAGTGAGLYDDMASTGERLVSWHREFTPNPQHRELYQEMMSKWQTVYADQLGLVDSGLTTSMWQAPGLERRQRVASSPSEGHHHHHH	soluble
MSLTARRFLNELADLYGVATSYTDYKGAHIEVSDDTLVKILRALGVNLDTSNLPNDDAIQRQIALFHDREFTRPLPPSVVAVEGDELVFPVHVHDGSPADVHIELEDGTQRDVSQVENWTAPREIDGIRWGEASFKIPGDLPLGWHKLHLKSNERSAECGLIITPARLSTADKYLDSPRSGVMAQIYSVRSTLSWGMGDFNDLGNLASVVAQDGADFLLINPMHAAEPLPPTEDSPYLPTTRRFINPIYIRVEDIPEFNQLEIDLRDDIAEMAAEFRERNLTSDIIERNDVYAAKLQVLRAIFEMPRSSEREANFVSFVQREGQGLIDFATWCADRETAQSESVHGTEPDRDELTMFYMWLQWLCDEQLAAAQKRAVDAGMSIGIMADLAVGVHPGGADAQNLSHVLAPDASVGAPPDGYNQQGQDWSQPPWHPVRLAEEGYIPWRNLLRTVLRHSGGIRVDHVLGLFRLFVMPRMQSPATGTYIRFDHNALVGILALEAELAGAVVIGEDLGTFEPWVQDALAQRGIMGTSILWFEHSPSQPGPRRQEEYRPLALTTVTTHDLPPTAGYLEGEHIALRERLGVLNTDPAAELAEDLQWQAEILDVAASANALPAREYVGLERDQRGELAELLEGLHTFVAKTPSALTCVCLVDMVGEKRAQNQPGTTRDMYPNWCIPLCDSEGNSVLIESLRENELYHRVAKASKRDEGHHHHHH	soluble
MSLTARVIALDLDGTLLTPHKTLLPSSLDALSRAKEAGFQLIIVTGRHHVAIHPFYQALALETPAICCNGTYLYDYQAKTVLDADPMPVDKALQLIDLLDEHQIHGLMYVDDAMLYEHPTGHVVRTSRWAQTLPPEQRPTFAQVSSLAQAARDVNAVWKFALTDEDIPKLQRFGQHVEQALGLECEWSWHDQVDIARKGNSKGKRLTQWIEAQGGSMKNVIAFGDNYNDISMLEAAGTGVAMGNADEAVKARADVVIGDNTTDSIAKFIYTHLLEGHHHHHH	soluble
